This is an account of results in patent publication US20240082304A1 (published 2024).

The target in the assay is T1, CT83 peptide on HLA-A2 (human).
T1 peptide: KLVELEHTL
In words: killing.

B1: A2-CT83 TCR (TCR, V domains shown)
Valpha: GEDVEQSLFLSVREGDSSVINCTYTDSSSTYLYWYKQEPGAGLQLLTYIFSNMDMKQDQRLTVLLNKKDKHLSLRIADTQTGDSAIYFCAEKSGYSGAGSYQLTFGKGTKLSVIP
Vbeta: SAVISQKPSRDICQRGTSLTIQCQVDSQVTMMFWYRQQPGQSLTLIATANQGSEATYESGFVIDKFPISRPNLTFSTLTVSNMSPEDSSIYLCSVQDSEAFFGQGTRLTVV
For the molecule B1, the binding result is “recognises”.
